According to patent US8133978 (GlaxoSmithKline, dated 2012):

T1: Human interleukin-18 (recombinant human IL-18) (human, UniProt Q14116 37-193)
T1 construct: also called hIL-18
T1 sequence: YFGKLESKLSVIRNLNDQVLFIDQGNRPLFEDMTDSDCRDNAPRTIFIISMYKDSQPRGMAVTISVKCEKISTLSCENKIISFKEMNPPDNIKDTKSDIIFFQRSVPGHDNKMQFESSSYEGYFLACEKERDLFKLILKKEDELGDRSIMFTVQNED


Columns and labels:
[1] = biological target: T1, Human interleukin-18 (recombinant human …); assay: SPR, Biacore T100, Protein A capture, 25 C, mean n = 3
Experimental: (§1) The methodology was basically the same as for the method used in Example 4a above; Protein A was immobilised on a CM5 chip at densities of between 2000-6000 RU's by primary amine coupling. Runs were carried out in HBS-EP (Biacore™). The anti-IL-18 antibodies were captured to densities of between 100-500 RUs, human IL-18 was passed over this captured surface at concentrations between 16-0.0625 nM, with 0 nM concentration (i.e., a buffer only injection of captured antibody) used for double referencing. Regeneration after each injection of IL-18 was by mild acidic elution using two injections of 10 mM glycine, pH1.5. […] The binding curves obtained were analysed using the analysis software inherent to the T100 machine using the 1:1 model of binding. Runs were carried out at the temperatures indicated.
These experiments were carried out as described above. Table 6 details the kinetic parameters obtained. […] H1L2 has a better on-rate (ka) than H1L1.

[2] = biological target: T1, Human interleukin-18 (recombinant human …); assay: SPR, Biacore T100, Protein A capture, 37 C, mean n = 2
Experimental: as §1

[3] = biological target: T1, Human interleukin-18 (recombinant human …); assay: SPR, Biacore 3000, antibody captured on Protein A, 25 C
Experimental: Biacore™ kinetic analysis of the humanised 2C10 antibodies was carried out on a Biacore™ 3000 instrument using Protein A capture of the antibodies in HBS-EP buffer (Biacore™). Briefly, Protein A was immobilised on a CM5 chip by primary amine coupling, using manufacturers recommended protocol, to densities around 2000-4000 resonance units (RU's). Humanised antibody was then passed over the Protein A surface and captured to levels of around 200-500 RU's, after a period of stabilisation, IL-18 (human or Rhesus) was passed over the captured antibody surface at defined concentrations and binding sensorgrams were obtained. […] All curves were double referenced against a buffer injection instead of IL-18 and the data was fitted to the 1:1 binding model using the global fit parameters in BiaEval 4.1. Off-rate ranking experiments were set up using the same Protein A capture method, however, only a single concentration of IL-18 was used (10 nM). Whilst the data was fitted using the same binding model as the kinetic analysis, since only one concentration of analyte was used on the off-rate is reported, this value is useful for ranking rather than giving an exact kinetic measurement and was used as a way of selecting which antibodies would be further investigated. […]

Rhesus IL-18 [4] = biological target: T2, Rhesus IL-18 (rhesus (rhesus/cynomolgus)); assay: as above
T2 construct: also called Rhesus/Cynomolgus IL-18; rhesus/cynomolgus IL-18
Experimental: (§2) Biacore™ kinetic analysis of the humanised 2C10 antibodies was carried out on a Biacore™ 3000 instrument using Protein A capture of the antibodies in HBS-EP buffer (Biacore™). Briefly, Protein A was immobilised on a CM5 chip by primary amine coupling, using manufacturers recommended protocol, to densities around 2000-4000 resonance units (RU's). Humanised antibody was then passed over the Protein A surface and captured to levels of around 200-500 RU's, after a period of stabilisation, IL-18 (human or Rhesus) was passed over the captured antibody surface at defined concentrations and binding sensorgrams were obtained. […] All curves were double referenced against a buffer injection instead of IL-18 and the data was fitted to the 1:1 binding model using the global fit parameters in BiaEval 4.1. Off-rate ranking experiments were set up using the same Protein A capture method, however, only a single concentration of IL-18 was used (10 nM). Whilst the data was fitted using the same binding model as the kinetic analysis, since only one concentration of analyte was used on the off-rate is reported, this value is useful for ranking rather than giving an exact kinetic measurement and was used as a way of selecting which antibodies would be further investigated.
(§3) Based upon these observations selected antibodies were investigated in greater detail for binding to human and Rhesus IL-18 at 37° C. The data shown in Table 4b for human IL-18 is the mean (and standard deviation) of six separate determinations.

[5] = biological target: T1, Human interleukin-18 (recombinant human …); assay: ELISA, human IL-18 captured by 16D10, antibody titrated
Experimental: ELISA with all nine humanised variants was carried out at least 6 times using various batches of purified antibody preparation. FIGS. 4A-4C show representative data from one experiment which generated the EC50 value ranking illustrated in Table 7. Human IL-18 was immobilized on Nunc Maxisorp 96-well plates using 2.5 µg/ml of 16D10 (non-neutralising mouse monoclonal antibody) to capture 5 ng/ml of recombinant human IL-18. Anti-IL-18 humanised antibodies were added at various dilutions. Bound humanised antibodies were detected using anti-human IgG Fc specific peroxidase conjugate (Sigma A0170).

Rhesus IL-18 [6] = biological target: T2, Rhesus IL-18; assay: Rhesus IL18 binding ELISA, antibody titrated, OD 490 nm
Rhesus IL-18 [7] = biological target: T2, Rhesus IL-18; assay: Rhesus IL-18 binding ELISA, antibody titrated, OD 490 nm
[8] = biological target: T1, Human interleukin-18 (recombinant human …); assay: ELISA, antibody on plate, human IL-18 captured, detected by 16D10; 37 C, in serum
Experimental: (§4) ELISA was carried out with the three Humanised H1 variants; H1L1, H1L2 and H1L3 to assess binding to human IL-18 at room temperature and at 37° C. in both human serum and in block solution (PBS 0.05% TWEEN with 1% BSA (w/v)). The Humanised antibody variants were immobilised on Nunc Maxisorp 96-well plates at 2.5 µg/ml. Capture of 5 ng/ml of recombinant human IL-18 was carried out either at room temperature or 37° C. in human serum or block solution. Anti-IL-18 mouse monoclonal antibody 16D10 was added. The bound mouse antibody was detected using anti-mouse kappa peroxidase conjugate (Serotec MCA 1291P). Representative EC50 values generated from the study data are illustrated in Table 9.

[9] = biological target: T1, Human interleukin-18 (recombinant human …); assay: ELISA, antibody on plate, human IL-18 captured, detected by 16D10; 37 C, blocking buffer
Experimental: as §4

[10] = biological target: T1, Human interleukin-18 (recombinant human …); assay: ELISA, antibody on plate, human IL-18 captured, detected by 16D10; room temperature, in serum
Experimental: as §4

[11] = biological target: T1, Human interleukin-18 (recombinant human …); assay: ELISA, antibody on plate, human IL-18 captured, detected by 16D10; room temperature, blocking buffer
Experimental: as §4

[12] = biological target: T1, Human interleukin-18 (recombinant human …); assay: cell-based or functional assay
[13] = biological target: T1, Human interleukin-18 (recombinant human …); assay: SPR, Biacore T100, Protein A capture, 37 C, mean n = 3
Experimental: as §1

[14] = biological target: T1, Human interleukin-18 (recombinant human …); assay: SPR, Biacore 3000, antibody captured on Protein A, 37 C
Experimental: as §2, §3

Rhesus IL-18 [15] = biological target: T2, Rhesus IL-18; assay: as above
Experimental: as §2, §3

| Kd [1] | Kd [2] | Kd [3] | Kd (Rhesus IL-18 [4]) | EC50 [5] | EC50 (read off the curve) (Rhesus IL-18 [6]) | EC50 (read off the curve) (Rhesus IL-18 [7]) | EC50 [8] | EC50 [9] | EC50 [10] | EC50 [11] | % change vs 2C10 (IC50, KG-1 bioassay) [12] | Kd [13] | Kd [14] | Kd (Rhesus IL-18 [15]) | Binder |
| --- | --- | --- | --- | --- | --- | --- | --- | --- | --- | --- | --- | --- | --- | --- | --- |
| 0.0091 nM | 0.0229 nM | 0.0139 nM | 0.0547 nM | 7 ng/mL | ~20 ng/mL | ~10 ng/mL | 10.1 ng/mL | 3.79 ng/mL | 7.3 ng/mL | 3.81 ng/mL | – | – | – | – | 2C10 rat-human chimera (chimaeric antibody 2C10c) (antibody, V domains shown, Rat 2C10 V regions joined to human IgG1 and kappa C regions; also called Chimera 2C10; 2C10 Chimera) VH: EVQLQQSGAELVRPGTSVKLSCKVSGEISTGYYFHFVRRRPGQGLEWIGRIDPEDDSTKYAERFKDRATLTAQTSSNTAYLNLSSLTSEDTATYFCTTWRIYRDSSGRPFYVMDAWGQGTLVTVSS VL: DIQMTQSPASLSASLGETVSIECLASEDIYTYLTWYQQKPGKSPQLLIYGANKLQDGVPSRFSGSGSGTQYSLKISGIQPEDEGDYFCLQGSKFPLTFGSGTKLEIKR |
| 0.022 nM | – | 0.0225 nM | 0.109 nM | 11 ng/mL | – | – | 11.4 ng/mL | 3.33 ng/mL | 8.99 ng/mL | 3.79 ng/mL | 71.6% | 0.0648 nM | 0.188 nM | 0.17 nM | H1L3 humanised anti-IL-18 antibody (antibody, human IgG1, kappa, V domains shown, Human IgG1 / kappa) VH: QVQLVQSGAEVKKPGASVKVSCKVSGEISTGYYFHWVRQAPGKGLEWMGRIDPEDDSTKYAERFKDRVTMTEDTSTDTAYMELSSLRSEDTAVYYCTTWRIYRDSSGRPFYVMDAWGQGTLVTVSS VL: DIQMTQSPSSVSASVGDRVTITCLASEDIYTYLTWYQQKPGKAPQLLIYGANKLQDGVPSRFSGSGSGTDYTLTISSLQPEDEGDYYCLQGSKFPLTFGQGTKLEIKR |
